These are literature values, as cited in paper PMC4103764.

This data set has as its target SARS 3C-like protease (SARS coronavirus) (UniProt P0C6X7). As to the kind of experiment: ITC. (In general: ITC needs no label: the signal is the heat of the interaction.)

Turning to “SARS 3C-like protease (from UniProt P0C6X7)”, the Kd was 21.4 µM.

The Kd is a measure of binding affinity in units of concentration.
